Reference: US20140090111A1, “Plant Hormone Biosensors” (Carnegie Institution of Washington, priority 2012, published 2014)

B1: GID1C(S114A): GA biosensor mutant variant, mutation of a GA binding residue of GID1C (protein, UniProt Q940G6 2-344, looked up, variant S114A)
Gibberellin receptor GID1C: AGSEEVNLIESKTVVPLNTWVLISNFKLAYNLLRRPDGTFNRHLAEFLDRKVPANANPVNGVFSFDVIIDRQTNLLSRVYRPADAGTSPSITDLQNPVDGEIVPVIVFFHGGAFAHSSANSAIYDTLCRRLVGLCGAVVVSVNYRRAPENRYPCAYDDGWAVLKWVNSSSWLRSKKDSKVRIFLAGDSSGGNIVHNVAVRAVESRIDVLGNILLNPMFGGTERTESEKRLDGKYFVTVRDRDWYWRAFLPEGEDREHPACSPFGPRSKSLEGLSFPKSLVVVAGLDLIQDWQLKYAEGLKKAGQEVKLLYLEQATIGFYLLPNNNHFHTVMDEIAAFVNAECQ
modifications: within FRET biosensor
B2: GID1C P98A: GA biosensor mutant variant rendering GID interaction with DELLA constitutive; control (protein, UniProt Q940G6 2-344, looked up, variant P98A)
Gibberellin receptor GID1C: AGSEEVNLIESKTVVPLNTWVLISNFKLAYNLLRRPDGTFNRHLAEFLDRKVPANANPVNGVFSFDVIIDRQTNLLSRVYRPADAGTSPSITDLQNAVDGEIVPVIVFFHGGSFAHSSANSAIYDTLCRRLVGLCGAVVVSVNYRRAPENRYPCAYDDGWAVLKWVNSSSWLRSKKDSKVRIFLAGDSSGGNIVHNVAVRAVESRIDVLGNILLNPMFGGTERTESEKRLDGKYFVTVRDRDWYWRAFLPEGEDREHPACSPFGPRSKSLEGLSFPKSLVVVAGLDLIQDWQLKYAEGLKKAGQEVKLLYLEQATIGFYLLPNNNHFHTVMDEIAAFVNAECQ
modifications: within FRET biosensor
notes: control

Assay: FRET fluorescence emission response of GA biosensors to GA
Format: binding
Settings: FIG. 9
Description: FIG. 9 depicts the fluorescence emission curves of a GA biosensor in response to GA. Also depicted are the GA responses of biosensor mutant variants. A: GA response of SMSX39L10.DR43 (RGA2 and GID1C sub-domains, L10 linker, Venus and Cerulean fluorescent proteins).
Expression and screening hormone biosensors using Saccharomyces cerevisiae as a eukaryotic host cell to better express the eukaryotic hormone binding domains. S. cerevisiae can be adapted to a high-throughput expression system. A new library of GATEWAY™ destination vectors was created for expression in yeast (Table IV, FIG. 2). Although expression of SMS in S. cerevisiae was successful as determined by fluorescence emissions, purification of sensors from the host cells was not possible because of cleavage of the hormone binding domains of the SMS proteins upon cell lysis, which can be important because the rate of transport of many plant hormones into yeast cells is low. […] SMS proteins were subsequently screened from cell lysates and after purification using metal-affinity chromatography, if the clones included an N-terminal 6HIS tag.
Subsequent experiments identified protocols for yeast cell transformation, culture and lysis, metal-affinity chromatography, and fluorescence analysis after hormone treatment in a 96-well format. Thus, a novel high-throughput platform for creation and screening of SMS had been developed. […]

| Molecule | GA affinity / GA response of biosensor |
| --- | --- |
| B1 | reduced GA affinity |
| B2 | GA non-responsive |
